Key:
Phenantroline assay = assay type: biochemical; settings: 10 μg or 20 μg RoxP
Description: Phenantroline chelates specifically Fe^2+ and generates absorbance at 550 nm.
A reaction mixture containing 0.7 mM ammonium iron (II) sulfate hexahydrate (from 1.4 mM working solution in PBS) or 0.5 mM ammonium iron (III) sulfate dodecahydrate (from 1.0 mM working solution in PBS); and further containing 10 μg or 20 μg RoxP (from 2 mg/ml RoxP working solution in PBS) or equivalent volume of PBS as control; and further containing 0.75 mM phenatroline (from 5 mM working solution in PBS); total volume 200 μl; was incubated for 15 minutes at room temperature. Absorbance was read at 550 nm.

HaCat cells = experiment: MTT viability assay, paraquat oxidative stress, keratinocytes; assay type: cell-based, human
Description: (§1) Human keratinocytes (HaCat cells; disclosed in Boukamp et al. 1988 J Cell Biol 106:761-71 and available from Deutsches Krebsforschungszentrum, DKFZ, info@cell-lines-service.de; and also commercially available for example from Addexbio, San Diego, Calif., catalogue number T0020001) were grown in SFM medium supplemented with L-glutamine, EGF (epidermal growth factor) and bovine pituitary extract (Gibson, Invitrogen) until 90% confluency in 96-well plates (Nunc A/S, Roskilde, Denmark). Human monocytes (THP-1 cells; disclosed in Tsuchiya et al. 1980 Int J Cancer 26:171-6; commercially available for example from Sigma-Aldrich, catalogue number 88081201; kindly provided by Dr Arne Egesten, Lund University) were cultured in RPMI 1640 medium supplemented with Glutamax-1 (Gibco®, ThermoFisher Scientific), 100 μg/ml streptomycin, 100 μg/ml penicillin, and 10% v/v foetal calf serum (ThermoFisher Scientific). All cells were grown at 37° C. in 5% CO2 and 95% humidity.
(§2) HaCat cells cultured to 90% confluency, or THP-1 cells (1.2×10^6 cells/well) in a 96-well plate were treated with 2 mM paraquat (Sigma-Aldrich) and/or 5 μM RoxP for 24-48 h. […] Viability was measured by the addition of 0.5 mg/ml 3-(4,5-demethylthiazol-2-yl)-2,5-diphenyltetrazolium bromide (MTT) for 1-5 hours. […] The samples incubated for 30 minutes and absorbance at 550 nm was measured using a Wallac 1420 Multilabel Counter ([…]). […]

THP-1 cells = experiment: MTT viability assay, paraquat oxidative stress, monocytes; assay type: cell-based, human
Description: as §1, §2

Lyophilisation of RoxP = assay type: physicochemical; settings: RoxP dissolved in water, absence of further excipients
Excerpt: Lyophilisation of proteins is also a well-established procedure in the art and typically employs an aqueous solution of the protein to be lyophilised, optionally admixed with one or more suitable lyophilisation excipients, such as trehalose, sucrose, raffinose, maltodextrin, mannitol, and/or dextran. […] The inventors have additionally observed that mannitol, and particularly 2-6% w/v, preferably 2-5% w/v, more preferably 2-4% w/v, or even more preferably 2-3% w/v mannitol (relative to the volume of the solution to be lyophilised) was especially advantageous for production of stable cake and preservation of RoxP activity.

[1] = ABTS radical cation assay; assay type: biochemical
Description: FIG. 4: RoxP antioxidant activity under adverse conditions. The ability of RoxP to reduce ABTS radical cations, denoted by a decrease in absorbance at 734 nm, was tested in multiple settings. Different concentrations of recombinant RoxP (rRoxP) (0.2-3.2 μM) in sodium phosphate buffer (20 mM, pH 7.4) (A), rRoxP (2.7 μM) incubated with salt solutions (B), pre-heated rRoxP (2.7 μM) incubated for 20 min in temperatures ranging from RT to 98° C. and allowed to cool down to ambient temperature prior to activity measurements (C), or rRoxP (2 μM) stored at room temperature for up to 2 weeks (D) were added to a solution of pre-formed ABTS radicals and the absorbance recorded after 30 sec.
The reduction of pre-formed ABTS radical cations in the presence of RoxP was analysed using a spectrophotometric assay previously described by Re et al. (1999 Free Radic Biol Med 26:1231-1237). 2,2′-azinobis(3-ethylbenzothiazoline-6-sulfonic acid) diammonium salt (ABTS) (Sigma-Aldrich) was initially dissolved in ddH2O to a concentration of […]. Potassium persulfate (Merck KGaA, Darmstadt, Germany) was subsequently added to a final concentration of 2.45 mM and the resulting solution kept dark and incubated overnight at RT. Formed ABTS radicals were diluted with PBS (pH 7.4) until reaching an absorbance of approximately 0.7 at 734 nm. Antioxidants (1.7 μM) were added (1:9 v/v) and the absorbance spectrum 500 to 900 nm recorded after 30 sec.

[2] = RoxP interaction with coproporphyrin III (absorbance curves); assay type: binding; settings: 1 mg/ml RoxP (100 μl) with 50 μg Coproporphyrin
Description: 1 mg/ml RoxP (100 μl) was mixed with 50 μg Coproporphyrin (10 μl) and total volume was adjusted to 290 μl with PBS. Absorbance was measured at different wavelengths. The absorbance curves indicate binding of coproporphyrin III by RoxP (see FIG. 26).

B1: RoxP: radical oxygenase of Propionibacterium acnes, secreted antioxidant protein of C. acnes; SEQ ID NO: 1 for strain KPA171202 (protein)
chain: MFVQIAASLAAASSIALGIPGAATPIDESQLPVGPQVSVTDSAQHTGPFAASSPLTITVKPGAPCVRADGYQESMVTRVLDDKGHQVWTGTFDESKLIGGTGLGTATFHVGSPAAAFNFHGSERTTYRTLSYCAYPHYVNGTRERLSQVSVKTFMVDPALN
modifications: Cutibacterium acnes
Q: For B1, which “reduction of Fe^3+ to Fe^2+ (absorbance at 550 nm)” value (Phenantroline assay; 0.5 mM ammonium iron (III) sulfate, 15 minutes) is on record?
A: reduced Fe^3+ to Fe^2+

Q: What about the “effect on reaction when only Fe^2+ was present” value (Phenantroline assay; 0.7 mM ammonium iron (II) sulfate) of the same molecule?
A: did not affect

Q: What about the “effect on negative oxidative effect of paraquat (cell viability)” value (HaCat cells; 2 mM paraquat, 5 μM RoxP (1:400 RoxP:oxidizer), 24 h, responded less well) of the same molecule?
A: completely inhibited

Q: And the “overall viability in the absence of an added oxidizer” value (HaCat cells; no paraquat)?
A: increase the overall viability

Q: And the “effect on negative oxidative effect of paraquat (cell viability)” value (THP-1 cells; 2 mM paraquat, 5 μM RoxP (1:400 RoxP:oxidizer), 48 h, effect more prominent than in keratinocytes)?
A: completely inhibited

Q: And the “overall viability in the absence of an added oxidizer” value (THP-1 cells; no paraquat)?
A: increase the overall viability

Q: And the “preservation of RoxP activity after lyophilisation” value (Lyophilisation of RoxP)?
A: satisfactorily preserved the activity

Q: And the “reduction of ABTS radical when FMN/FDN was added” value ([1]; RoxP 2 mg/ml 10 μl, FMN/FDN 1 mM 1 μl or 3 μl, especially FDN)?
A: increased reduction

Q: And the “activity after long-term storage at room temperature” value ([1]; rRoxP 2 μM stored at room temperature for up to 2 weeks)?
A: able to endure

Q: And the “antioxidant activity in presence of CaCl2” value ([1]; rRoxP 2.7 μM incubated with salt solutions)?
A: loss of activity

Q: What about the “temperature endured without any significant loss of activity” value ([1]; rRoxP 2.7 μM pre-heated 20 min, RT to 98° C., cooled before measurement) of the same molecule?
A: above 70 °C

Q: What about the “antioxidant activity in presence of NaCl” value ([1]; rRoxP 2.7 μM, physiological concentrations of NaCl) of the same molecule?
A: withstood

Q: What about the “reducing activity on ABTS radical cations” value ([1]; rRoxP 0.2-3.2 μM, sodium phosphate buffer 20 mM pH 7.4) of the same molecule?
A: concentration-dependent reducing activity

Q: And the “binding of coproporphyrin III” value [2]?
A: binding

Source: patent publication US20220000762A1, “COMPOSITIONS FOR TREATING OXIDATIVE STRESS-ASSOCIATED SKIN DISEASES AND SKIN AGEING AND DIAGNOSIS OF OXIDATIVE STRESS-ASSOCIATED SKIN DISEASES” (priority 2019, published 2022)
